Measured values taken from PMC9374677.

Target: MBP-TNFR1^ECD deletion mutant ΔCRD2 (human) (UniProt P19438)
Test: ITC; MicroCal PEAQ-ITC, 16 °C; […] (500–600 μM) […] (~60 μM); 20 mM Tris-HCl pH 7.5, 200 mM NaCl; […]

Staphylococcal superantigen-like protein 10 (SSL10), residues 31-227, C-terminal 6xHis (from UniProt A0A0H3K6Z9 31-227) (natural protein)
Kd: 30.3 µM
